Results from publication PMC8780509.

Molecular target: Recombinant human GCK (residues 16-465) fused to a N-terminal hexahistidine tag (human) (UniProt P35557)
Chain of UniProt P35557 (P35557 16-465): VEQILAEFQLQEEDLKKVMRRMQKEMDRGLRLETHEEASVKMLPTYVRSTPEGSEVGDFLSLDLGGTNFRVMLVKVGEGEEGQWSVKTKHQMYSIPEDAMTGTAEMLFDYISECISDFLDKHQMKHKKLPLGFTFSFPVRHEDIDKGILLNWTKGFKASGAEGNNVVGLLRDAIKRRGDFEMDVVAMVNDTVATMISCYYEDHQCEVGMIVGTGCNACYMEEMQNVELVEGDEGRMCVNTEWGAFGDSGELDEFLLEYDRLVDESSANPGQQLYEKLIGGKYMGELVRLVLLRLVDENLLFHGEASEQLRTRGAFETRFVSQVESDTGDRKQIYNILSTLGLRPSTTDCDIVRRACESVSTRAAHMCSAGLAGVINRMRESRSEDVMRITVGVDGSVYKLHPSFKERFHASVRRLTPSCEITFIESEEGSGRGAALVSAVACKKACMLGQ

## Purified NS5A-D2 protein (amino acids 250 to 342) (domain or fragment)
  maximum velocity (Vmax) of purified GCK, increase in the presence of NS5A-D2: 31%
